Laboratory results taken from FireProtDB.
“And” between values parts separate entries of the source, which are not always exact repeats. Equal entries are not always repeated.

B1: Alpha-lactalbumin, P00711 (parent)
chain: MMSFVSLLLVGILFHATQAEQLTKCEVFRELKDLKGYGGVSLPEWVCTTFHTSGYDTQAIVQNNDSTEYGLFQINNKIWCKDDQNPHSSNICNISCDKFLDDDLTDDIMCVKKILDKVGINYWLAHKALCSEKLDQWLCEKL
B2: Thioredoxin, P80579 (parent)
chain: ATMTLTDANFQQAIQGDKPVLVDFWAAWCGPCRMMAPVLEEFAEAHADKVTVAKLNVDENPETTSQFGIMSIPTLILFKGGRPVKQLIGYQPKEQLEAQLADVLQ
B3: Ribose import binding protein RbsB, P02925 (parent)
chain: MNMKKLATLVSAVALSATVSANAMAKDTIALVVSTLNNPFFVSLKDGAQKEADKLGYNLVVLDSQNNPAKELANVQDLTVRGTKILLINPTDSDAVGNAVKMANQANIPVITLDRQATKGEVVSHIASDNVLGGKIAGDYIAKKAGEGAKVIELQGIAGTSAARERGEGFQQAVAAHKFNVLASQPADFDRIKGLNVMQNLLTAHPDVQAVFAQNDEMALGALRALQTAGKSDVMVVGFDGTPDGEKAVNDGKLAATIAQLPDQIGAKGVETADKVLKGEKVQAKYPVDLKLVVKQ
B4: Cytochrome c-552, P15452 (parent)
chain: MKKFLLVAVVGLAGITFANEQLAKQKGCMACHDLKAKKVGPAYADVAKKYAGRKDAVDYLAGKIKKGGSGVWGSVPMPPQNVTDAEAKQLAQWILSIK
B5: Superoxide dismutase [Cu-Zn], P00445 (parent)
chain: MVQAVAVLKGDAGVSGVVKFEQASESEPTTVSYEIAGNSPNAERGFHIHEFGDATNGCVSAGPHFNPFKKTHGAPTDEVRHVGDMGNVKTDENGVAKGSFKDSLIKLIGPTSVVGRSVVIHAGQDDLGKGDTEESLKTGNAGPRPACGVIGLTN
B6: Pseudoazurin, P80401 (parent)
chain: MFHHSLAAAAAALLALAAPGFAATHEVHMLNKGESGAMVFEPAFVRAEPGDVINFVPTDKSHNVEAIKEILPEGVESFKSKINESYTLTVTEPGLYGVKCTPHFGMGMVGLVQVGDAPENLDAAKTAKMPKKARERMDAELAQVN
B7: Lysozyme C, P61626 (parent)
chain: MKALIVLGLVLLSVTVQGKVFERCELARTLKRLGMDGYRGISLANWMCLAKWESGYNTRATNYNAGDRSTDYGIFQINSRYWCNDGKTPGAVNACHLSCSALLQDNIADAVACAKRVVRDPQGIRAWVAWRNRCQNRDVRQYVQGCGV
B8: Phosphoglycerate kinase, P00560 (parent)
chain: MSLSSKLSVQDLDLKDKRVFIRVDFNVPLDGKKITSNQRIVAALPTIKYVLEHHPRYVVLASHLGRPNGERNEKYSLAPVAKELQSLLGKDVTFLNDCVGPEVEAAVKASAPGSVILLENLRYHIEEEGSRKVDGQKVKASKEDVQKFRHELSSLADVYINDAFGTAHRAHSSMVGFDLPQRAAGFLLEKELKYFGKALENPTRPFLAILGGAKVADKIQLIDNLLDKVDSIIIGGGMAFTFKKVLENTEIGDSIFDKAGAEIVPKLMEKAKAKGVEVVLPVDFIIADAFSADANTKTVTDKEGIPAGWQGLDNGPESRKLFAATVAKAKTIVWNGPPGVFEFEKFAAGTKALLDEVVKSSAAGNTVIIGGGDTATVAKKYGVTDKISHVSTGGGASLELLEGKELPGVAFLSEKK
B9: Phosphoglycerate kinase 1, P00558 (parent)
chain: MSLSNKLTLDKLDVKGKRVVMRVDFNVPMKNNQITNNQRIKAAVPSIKFCLDNGAKSVVLMSHLGRPDGVPMPDKYSLEPVAVELKSLLGKDVLFLKDCVGPEVEKACANPAAGSVILLENLRFHVEEEGKGKDASGNKVKAEPAKIEAFRASLSKLGDVYVNDAFGTAHRAHSSMVGVNLPQKAGGFLMKKELNYFAKALESPERPFLAILGGAKVADKIQLINNMLDKVNEMIIGGGMAFTFLKVLNNMEIGTSLFDEEGAKIVKDLMSKAEKNGVKITLPVDFVTADKFDENAKTGQATVASGIPAGWMGLDCGPESSKKYAEAVTRAKQIVWNGPVGVFEWEAFARGTKALMDEVVKATSRGCITIIGGGDTATCCAKWNTEDKVSHVSTGGGASLELLEGKVLPGVDALSNI
B10: Adenylate kinase, P16304 (parent)
chain: MNLVLMGLPGAGKGTQGERIVEDYGIPHISTGDMFRAAMKEETPLGLEAKSYIDKGELVPDEVTIGIVKERLGKDDCERGFLLDGFPRTVAQAEALEEILEEYGKPIDYVINIEVDKDVLMERLTGRRICSVCGTTYHLVFNPPKTPGICDKDGGELYQRADDNEETVSKRLEVNMKQTQPLLDFYSEKGYLANVNGQQDIQDVYADVKDLLGGLKK

Variants of: B1
Details: Bos taurus; pH 8; Thermal; Fluorescence; HEPES 10 mM; CaCl2 1 mM; structure 1HFZ; whole UniProt chain shown

| Variant | Tm | change of melting temperature, mutant - wild type (higher = more stable) |
| --- | --- | --- |
| D106N | 31.4 °C | 6.8 °C |

Variants of: B2
Details: Alicyclobacillus acidocaldarius subsp. acidocaldarius; pH 7; GdHCl; CD; Sodium phosphate 10 mM; reversible: yes; structure 1QUW; whole UniProt chain shown

| Variant | denaturant midpoint (higher = more stable) |
| --- | --- |
| R82E | 2.7 M |
| K18G R82E | 2.4 M |

Same assay, conditions: Alicyclobacillus acidocaldarius subsp. acidocaldarius; pH 7; Thermal; CD; Sodium phosphate 10 mM; reversible: yes; structure 1QUW; whole UniProt chain shown

| Variant | Tm |
| --- | --- |
| R82E | 81.5 °C and 81.4 °C |
| K18G R82E | 73.1 °C |

Same assay, conditions: Alicyclobacillus acidocaldarius subsp. acidocaldarius; pH 7; Urea; CD; Sodium phosphate 10 mM; reversible: yes; structure 1QUW; whole UniProt chain shown

| Variant | denaturant midpoint (higher = more stable) |
| --- | --- |
| R82E | 5.5 M |
| K18G R82E | 4.6 M |

Variants of: B3
Details: Escherichia coli (strain K12); pH 7.7; 25 °C; GdnHCl; Fluorescence; HEPES 10 mM; reversible: yes; structure 2DRI; whole UniProt chain shown

| Variant | unfolding free energy |
| --- | --- |
| A52T | 1.8 kcal/mol |

Variants of: B4
Details: Hydrogenobacter thermophilus (strain DSM 6534 / IAM 12695 / TK-6); pH 7; Thermal; CD; reversible: yes; structure 1YNR; whole UniProt chain shown

| Variant | change of melting temperature, mutant - wild type (higher = more stable) |
| --- | --- |
| A91V | -7.5 °C and -2.9 °C |

Variants of: B5
Details: Saccharomyces cerevisiae (strain ATCC 204508 / S288c); Thermal; Fluorescence; structure 1JK9; whole UniProt chain shown

| Variant | change of melting temperature, mutant - wild type (higher = more stable) |
| --- | --- |
| G94A | 20 °C |

Variants of: B6
Details: Paracoccus pantotrophus; pH 7; 25 °C; Urea; CD; Sodium phosphate 20 mM; Na2SO4 0.5 M; reversible: yes; structure 1ADW; whole UniProt chain shown

| Variant | denaturant m value |
| --- | --- |
| Y96W | 1.19 kcal/mol/M |

Variants of: B7
Details: Homo sapiens; pH 3; 10 °C; GdnHCl; Fluorescence; glycine-HCl 40 mM; reversible: yes; structure 1LZ1; whole UniProt chain shown

| Variant | ddG of mutation (higher = less stable) | unfolding free energy |
| --- | --- | --- |
| C95A C113A | 5.7 kcal/mol | 6.1 kcal/mol |

Same assay, conditions: Homo sapiens; pH 4; 10 °C; GdnHCl; CD; glycine-HCl 40 mM; reversible: yes; structure 1LZ1; whole UniProt chain shown

| Variant | ddG of mutation (higher = less stable) | unfolding free energy |
| --- | --- | --- |
| C95A C113A | 5.8 kcal/mol | 8.2 kcal/mol |

Same assay, conditions: Homo sapiens; pH 4; 10 °C; GdnHCl; CD; GdnHCl 40 mM; reversible: yes; structure 1LZ1; whole UniProt chain shown

| Variant | ddG of mutation (higher = less stable) | denaturant m value | denaturant midpoint (higher = more stable) | unfolding free energy |
| --- | --- | --- | --- | --- |
| I74T | 6.67 kcal/mol | 2.96 kcal/mol/M | 2.7 M | 7.31 kcal/mol |
| D85H | 4.54 kcal/mol | 3.2 kcal/mol/M | 3.1 M | 9.44 kcal/mol |

Same assay, conditions: Homo sapiens; pH 5.2; 20 °C; GdnHCl; CD; Sodium acetate 20 mM; reversible: yes; structure 1LZ1; whole UniProt chain shown

| Variant | ddG of mutation (higher = less stable) | denaturant m value | denaturant midpoint (higher = more stable) | unfolding free energy |
| --- | --- | --- | --- | --- |
| W82C C83A | 2.2 kcal/mol | 3.3 kcal/mol/M | 3.79 M | 12.5 kcal/mol |

Same assay, conditions: Homo sapiens; pH 2.35; 36.7 °C; Thermal; DSC; Gly-HCl 0.05 M; reversible: yes; structure 1LZ1; whole UniProt chain shown

| Variant | unfolding enthalpy (calorimetric) | unfolding enthalpy (van 't Hoff) |
| --- | --- | --- |
| I77A | 55.7 kcal/mol | 58.1 kcal/mol |

Same assay, conditions: Homo sapiens; pH 2.9; 47.2 °C; Thermal; DSC; Gly-HCl 0.05 M; reversible: yes; structure 1LZ1; whole UniProt chain shown

| Variant | unfolding enthalpy (calorimetric) | unfolding enthalpy (van 't Hoff) |
| --- | --- | --- |
| I77A | 72.7 kcal/mol | 74.8 kcal/mol |

Variants of: B8
Details: Saccharomyces cerevisiae (strain ATCC 204508 / S288c); pH 6.5; 25 °C; GdnHCl; CD; Sodium phosphate 20 mM; reversible: yes; structure 3PGK; whole UniProt chain shown

| Variant | ddG of mutation (higher = less stable) | denaturant m value | unfolding free energy |
| --- | --- | --- | --- |
| H389Q | 0.84 kcal/mol | 6.08 kcal/mol/M | 2.99 kcal/mol |

Same assay, conditions: Saccharomyces cerevisiae (strain ATCC 204508 / S288c); pH 6.2; 20 °C; GdnHCl; CD; potassium phosphate 50 mM; structure 3PGK; whole UniProt chain shown

| Variant | denaturant m value | unfolding free energy |
| --- | --- | --- |
| W309F | 18 kcal/mol/M | 10.3 kcal/mol |
| W309F W334F Y123W | 14 kcal/mol/M | 5.71 kcal/mol |

Same assay, conditions: Saccharomyces cerevisiae (strain ATCC 204508 / S288c); pH 6.2; 20 °C; Thermal; CD; potassium phosphate 20 mM; structure 3PGK; whole UniProt chain shown

| Variant | unfolding free energy |
| --- | --- |
| W309F | 5.43 kcal/mol |
| W309F W334F Y123W | 5.23 kcal/mol |
| W334F | 5.16 kcal/mol |

Same assay, conditions: Saccharomyces cerevisiae (strain ATCC 204508 / S288c); pH 7.5; 22 °C; GdnHCl; CD; Tris 20 mM; structure 3PGK; whole UniProt chain shown

| Variant | ddG of mutation (higher = less stable) | denaturant midpoint (higher = more stable) | unfolding free energy |
| --- | --- | --- | --- |
| W309Y | 3.6 kcal/mol | 0.55 M | 4.2 kcal/mol |
| W334F | -2.2 kcal/mol | 0.64 M | 10 kcal/mol |

Variants of: B9
Details: Homo sapiens; pH 7.4; 25 °C; Urea; CD; HEPES 20mM; NaCl 200 mM; transition: 2; reversible: Yes; structure 2WZB; whole UniProt chain shown

| Variant | ddG of mutation (higher = less stable) | denaturant m value | denaturant midpoint (higher = more stable) | unfolding free energy |
| --- | --- | --- | --- | --- |
| E252A | 0.7 kcal/mol | 3.2 kcal/mol/M | 2.37 M | 7.6 kcal/mol |
| T378P | 4.8 kcal/mol | 1.5 kcal/mol/M | 2.28 M | 3.5 kcal/mol |

Variants of: B10
Details: Bacillus subtilis (strain 168); pH 7.4; Thermal; DSC; Hepes 50 mM; reversible: No; structure 2EU8; whole UniProt chain shown

| Variant | change of melting temperature, mutant - wild type (higher = more stable) |
| --- | --- |
| D23K Y103M E114Q S169T Q180A S187D A193V V208L D210V K217Q | 5 °C |
| L3I G17A D23K K69R G73S D75S Y103M K105R E114Q D118E V119E S169T Q180A D184A S187D E188S G190E Y191V A193V Y205F D210V L211I K217Q | 11.6 °C |
| L3I G17A D23K K69R G73S D75S I99S Y103M K105R E114Q D118E V119E M121I E122A S169T Q180A D184A S187D E188S G190E Y191V A193V Y205F D210V L211I K217Q | 12.5 °C |
